Measurements published in patent publication US20240228660A1 (IP2IPO INNOVATIONS, published 2024).
Read-outs that look alike come from different tables or passages of the source.

Columns and labels:
[1] = target: T1, human full-length VWF (human, UniProt P04275 764-2813); experiment: SPR, Biacore T200, antibody captured on Protein A, full-length VWF as analyte, single-cycle kinetics
Description: (§1) Antibodies were captured on Protein A sensor chip. The system was purged using running buffer (10 mM HEPES pH 7.4, 300 mM NaCl, 3 mM EDTA, 0.05% P20) and a series S Protein A chip was docked in the Biacore T200. The surface was conditioned with 10 mM glycine-HCl pH 1.5 regeneration solution (3 injections). Each antibody was diluted to ˜0.8 μg/ml in running buffer to capture ˜350 RU on flow cells 2, 3 and 4 (flow cell 1 used as in-line reference cell). Single-cycle kinetic analysis of human full-length VWF binding to antibodies was performed using the following parameters:

[2] = target: T1, human full-length VWF; experiment: as above; remark: listed apart in the source
Description: as §1

[3] = target: T1, human full-length VWF; experiment: SPR Biacore T200, antibody captured on Protein A chip, full-length VWF as analyte, single-cycle kinetics
Description: as §1

[4] = target: T1, human full-length VWF; experiment: SPR, Biacore T200, antibody captured on Protein A, full-length VWF as analyte, single-cycle kinetics; remark: listed apart in the source
Description: as §1

Row | Kd [1] | koff [1] | kon [1] | Kd [3] | Binder | further results
1 | 12.4 pM | 1.14e-06 s⁻¹ | 92000 M⁻¹ s⁻¹ |  | 3-H9_H2_VL-par (antibody, human IgG1, kappa, V domains shown, also called 3-H9_H2 (hIgG1)) VH: QQLVESGGGVVQPGRSLRLSCAASGFSLSNYDMSWVRQAPGKGLEWIGSIHAIGITYYANWAEGRFTISRDKNTVYLQMNSLRAEDTATYFCARGLVDLNMWGQGTLVTVSS VL: AIKMTQTPSSVSVAVGGTVTINCQSSQSVYSNNLLSWYQQKPGQPPKLLIYDASTLESGVPSRFKGSGSGTQFTLTISGVQCEDAATYYCQGSYYSSGWYNTFGGGTEVVVET | 
2 | 14.4 pM | 3.78e-07 s⁻¹ | 26200 M⁻¹ s⁻¹ |  | 1-G5_H2_VL-par (antibody, human IgG1, kappa, V domains shown, also called 1-G5_H2 (hIgG1)) VH: QQLVESGGGVVQPGRSLRLSCAASGFSLSSYDMTWVRQAPGKGLEWIGSIHATGITFYANWAKGRFTTSKDSNTVYLQMNSLRAEDTATYFCARGLVDLNMWGQGTLVTVSS VL: DPVMTQTASSVSAAVGGTVTINCQASQSVYNNNYLSWYQQKPGQPPKLLIYDASTLASGVPSRFSGNGSGTQFTLTISGVQCDDAATYYCQGSYYSGGWDTAFGGGTKVVVKT | 
3 | 3.13 pM | 7.18e-08 s⁻¹ | 22900 M⁻¹ s⁻¹ |  | 3-H9_H1_VL-par (antibody, human IgG1, kappa, V domains shown, also called 3-H9_H1 (hIgG1)) VH: not shown VL: AIKMTQTPSSVSVAVGGTVTINCQSSQSVYSNNLLSWYQQKPGQPPKLLIYDASTLESGVPSRFKGSGSGTQFTLTISGVQCEDAATYYCQGSYYSSGWYNTFGGGTEVVVET | 
4 | 4.09 pM | 3.59e-07 s⁻¹ | 87700 M⁻¹ s⁻¹ |  | 3-H9_H0_VL-par (antibody, human IgG1, kappa, V domains shown, also called 3-H9_H0 (hIgG1)) VH: QVQLVESGGGVVQPGRSLRLSCAASGFTFSNYDMSWVRQAPGKGLEWVASIHAIGITYYANWAEGRFTISRDNSKNTLYLQMNSLRAEDTAVYYCARGLVDLNMWGQGTLVTVSS VL: AIKMTQTPSSVSVAVGGTVTINCQSSQSVYSNNLLSWYQQKPGQPPKLLIYDASTLESGVPSRFKGSGSGTQFTLTISGVQCEDAATYYCQGSYYSSGWYNTFGGGTEVVVET | 
5 |  |  |  |  | 3-H9_VH-par_VL-par (antibody, human IgG1, kappa, also called 3-H9_parental (hIgG1)) heavy chain: not shown light chain: AIKMTQTPSSVSVAVGGTVTINCQSSQSVYSNNLLSWYQQKPGQPPKLLIYDASTLESGVPSRFKGSGSGTQFTLTISGVQCEDAATYYCQGSYYSSGWYNTFGGGTEVVVETVAAPSVFIFPPSDEQLKSGTASVVCLLNNFYPREAKVQWKVDNALQSGNSQESVTEQDSKDSTYSLSSTLTLSKADYEKHKVYACEVTHQGLSSPVTKSFNRGEC | Kd [2]: 43.4 pM
6 |  |  |  |  | 1-D5_H2_VL-par (antibody, human IgG1, kappa, V domains shown, also called 1-D5_H2 (hIgG1)) VH: QQQLVESGGGVVQPGRSLRLSCAASGFSLNNYIMGWVRQAPGKGLEYIGIISTGGSTYYASWAKGRFTISRDSNTMYLQMNSLRAEDTATYFCARGGSSAGAGFNIWGQGTLVTVSS VL: DIVMTQTPSSVSAAVGDTVTIQCQASQSINSGLAWYQQKPGQPPKRLIYKASTLASGVPSRFRGSGSGTDFTLTISDLECADAATYYCQSYHYISANGATFGGGTEVVVET | Kd [2]: 31.2 pM; koff [2]: 4.2e-06 s⁻¹; kon [2]: 135000 M⁻¹ s⁻¹
7 |  |  |  |  | 1-D5_H1_VL-par (antibody, human IgG1, kappa, V domains shown, also called 1-D5_H1 (hIgG1)) VH: QVQLVESGGGVVQPGRSLRLSCAASGFSLNNYIMGWVRQAPGKGLEWVAIISTGGSTYYASWAKGRFTISRDNSKNTLYLQMNSLRAEDTAVYYCARGGSSAGAGFNIWGQGTLVTVSS VL: DIVMTQTPSSVSAAVGDTVTIQCQASQSINSGLAWYQQKPGQPPKRLIYKASTLASGVPSRFRGSGSGTDFTLTISDLECADAATYYCQSYHYISANGATFGGGTEVVVET | Kd [2]: 0.304 pM; koff [2]: 2.37e-08 s⁻¹; kon [2]: 78000 M⁻¹ s⁻¹
8 |  |  |  |  | 1-D5_H0_VL-par (antibody, human IgG1, kappa, V domains shown, also called 1-D5_H0 (hIgG1)) VH: QVQLVESGGGVVQPGRSLRLSCAASGFTFSNYIMGWVRQAPGKGLEWVAIISTGGSTYYASWAKGRFTISRDNSKNTLYLQMNSLRAEDTAVYYCARGGSSAGAGFNIWGQGTLVTVSS VL: DIVMTQTPSSVSAAVGDTVTIQCQASQSINSGLAWYQQKPGQPPKRLIYKASTLASGVPSRFRGSGSGTDFTLTISDLECADAATYYCQSYHYISANGATFGGGTEVVVET | Kd [2]: 0.031 pM; koff [2]: 2.38e-09 s⁻¹; kon [2]: 77000 M⁻¹ s⁻¹
9 | 12 pM | 1.28e-06 s⁻¹ | 107000 M⁻¹ s⁻¹ |  | 1-G5_VH-par_L1 (antibody, human IgG1, kappa, also called 1-G5_L1 (hIgG1K)) heavy chain: not shown light chain: DPQMTQSPSSLSASVGDRVTITCQASQSVYNNNYLSWYQQKPGKAPKLLIYDASTLASGVPSRFSGSGSGTDFTLTISSLQPEDFATYYCQGSYYSGGWDTAFGGGTKVEIKTVAAPSVFIFPPSDEQLKSGTASVVCLLNNFYPREAKVQWKVDNALQSGNSQESVTEQDSKDSTYSLSSTLTLSKADYEKHKVYACEVTHQGLSSPVTKSFNRGEC | 
10 |  |  |  | < 1000 pM | 1-G5_H1_L0 (antibody, human IgG1, kappa, humanised, human IgG1 kappa) heavy: not shown light: DIQMTQSPSSLSASVGDRVTITCQASQSVYNNNYLSWYQQKPGKAPKLLIYDASTLASGVPSRFSGSGSGTDFTLTISSLQPEDFATYYCQGSYYSGGWDTAFGGGTKVEIKTVAAPSVFIFPPSDEQLKSGTASVVCLLNNFYPREAKVQWKVDNALQSGNSQESVTEQDSKDSTYSLSSTLTLSKADYEKHKVYACEVTHQGLSSPVTKSFNRGEC | 
11 | 3.58 pM | 3.8e-07 s⁻¹ | 106000 M⁻¹ s⁻¹ |  | 1-G5_VH-par_L0 (antibody, human IgG1, kappa, also called 1-G5_L0 (hIgG1K)) heavy chain: not shown light chain: DIQMTQSPSSLSASVGDRVTITCQASQSVYNNNYLSWYQQKPGKAPKLLIYDASTLASGVPSRFSGSGSGTDFTLTISSLQPEDFATYYCQGSYYSGGWDTAFGGGTKVEIKTVAAPSVFIFPPSDEQLKSGTASVVCLLNNFYPREAKVQWKVDNALQSGNSQESVTEQDSKDSTYSLSSTLTLSKADYEKHKVYACEVTHQGLSSPVTKSFNRGEC | 
12 | 0.475 pM |  |  |  | 1-G5_VH-par_VL-par (antibody, human IgG1, kappa, also called 1-G5_parental (hIgG1)) heavy chain: not shown light chain: DPVMTQTASSVSAAVGGTVTINCQASQSVYNNNYLSWYQQKPGQPPKLLIYDASTLASGVPSRFSGNGSGTQFTLTISGVQCDDAATYYCQGSYYSGGWDTAFGGGTKVVVKTVAAPSVFIFPPSDEQLKSGTASVVCLLNNFYPREAKVQWKVDNALQSGNSQESVTEQDSKDSTYSLSSTLTLSKADYEKHKVYACEVTHQGLSSPVTKSFNRGEC | 
13 |  |  |  | < 1000 pM | 4-H3_H6_L0 (antibody, human IgG1, kappa, humanised, human IgG1 kappa) heavy: not shown light: DIQMTQSPSSLSASVGDRVTITCLASEDIASGISWYQQKPGKAPKLLIYGASNLESGVPSRFSGSGSGTDFTLTISSLQPEDFATYYCLGGYSFSSNGLTFGGGTKVEIKTVAAPSVFIFPPSDEQLKSGTASVVCLLNNFYPREAKVQWKVDNALQSGNSQESVTEQDSKDSTYSLSSTLTLSKADYEKHKVYACEVTHQGLSSPVTKSFNRGEC | Kd [4]: 0.649 pM; koff [4]: 2.67e-08 s⁻¹; kon [4]: 41200 M⁻¹ s⁻¹
14 |  |  |  | < 1000 pM | 4-H3_H6_L1 (antibody, human IgG1, kappa, humanised, human IgG1 kappa) heavy: not shown light: DYQMTQSPSSLSASVGDRVTITCLASEDIASGISWYQQKPGKAPKLLIYGASNLESGVPSRFSGSGSGTDYTLTISSLQPEDFATYYCLGGYSFSSNGLTFGGGTKVEIKTVAAPSVFIFPPSDEQLKSGTASVVCLLNNFYPREAKVQWKVDNALQSGNSQESVTEQDSKDSTYSLSSTLTLSKADYEKHKVYACEVTHQGLSSPVTKSFNRGEC | Kd [4]: 1.73 pM; koff [4]: 1.14e-07 s⁻¹; kon [4]: 65700 M⁻¹ s⁻¹
15 | 111 pM | 2.12e-05 s⁻¹ | 192000 M⁻¹ s⁻¹ |  | 3-H9_VH-par_L0 (antibody, human IgG1, kappa, V domains shown, also called 3-H9_L0 (hIgG1K)) VH: SQSLEESGGRLVTPGTPLTLTCSVSGFSLSNYDMSWVRQAPGKGLEWIGSIHAIGITYYANWAEGRFTISKTSTTVDLKMTSLTTEDTATYFCARGLVDLNMWGPGTLVTVSS VL: DIQMTQSPSSLSASVGDRVTITCQSSQSVYSNNLLSWYQQKPGKAPKLLIYDASTLESGVPSRFSGSGSGTDFTLTISSLQPEDFATYYCQGSYYSSGWYNTFGGGTKVEIKT | 
16 | 6.77 pM | 1.66e-07 s⁻¹ | 24600 M⁻¹ s⁻¹ |  | 1-G5_H1_VL-par (antibody, human IgG1, kappa, V domains shown, also called 1-G5_H1 (hIgG1)) VH: not shown VL: DPVMTQTASSVSAAVGGTVTINCQASQSVYNNNYLSWYQQKPGQPPKLLIYDASTLASGVPSRFSGNGSGTQFTLTISGVQCDDAATYYCQGSYYSGGWDTAFGGGTKVVVKT | 
17 | 8.52 pM | 7.2e-07 s⁻¹ | 84500 M⁻¹ s⁻¹ |  | 1-G5_H0_VL-par rep (antibody, human IgG1, kappa, V domains shown, also called 1-G5_H0 (hIgG1)) VH: QVQLVESGGGVVQPGRSLRLSCAASGFTFSSYDMTWVRQAPGKGLEWVASIHATGITFYANWAKGRFTISRDNSKNTLYLQMNSLRAEDTAVYYCARGLVDLNMWGQGTLVTVSS VL: DPVMTQTASSVSAAVGGTVTINCQASQSVYNNNYLSWYQQKPGQPPKLLIYDASTLASGVPSRFSGNGSGTQFTLTISGVQCDDAATYYCQGSYYSGGWDTAFGGGTKVVVKT | 
18 |  |  |  | < 1000 pM | 4-H3_H0_L0 (antibody, human IgG1, kappa, V domains shown, humanised, human IgG1 kappa) VH: QVQLVESGGGVVQPGRSLRLSCAASGFTFSSNAMNWVRQAPGKGLEWVAGIYGHDTSYYAAWAKGRFTISRDNSKNTLYLQMNSLRAEDTAVYYCARGFIYFDIWGQGTLVTVSS VL: DIQMTQSPSSLSASVGDRVTITCLASEDIASGISWYQQKPGKAPKLLIYGASNLESGVPSRFSGSGSGTDFTLTISSLQPEDFATYYCLGGYSFSSNGLTFGGGTKVEIKT | 
19 |  |  |  | < 1000 pM | 4-H3_H7_L0 rep (antibody, human IgG1, kappa, V domains shown, humanised, human IgG1 kappa) VH: QVQLVESGGGVVQPGRSLRLSCAASGIDLTSNAMNWVRQAPGKGLEWIGGIYGHDTSYYAAWAKGRFTISRDNSKNTVYLQMNSLRAEDTATYFCARGFIYFDIWGQGTLVTVSS VL: DIQMTQSPSSLSASVGDRVTITCLASEDIASGISWYQQKPGKAPKLLIYGASNLESGVPSRFSGSGSGTDFTLTISSLQPEDFATYYCLGGYSFSSNGLTFGGGTKVEIKT | Kd [4]: 1.61 pM; koff [4]: 1.73e-07 s⁻¹; kon [4]: 108000 M⁻¹ s⁻¹
20 |  |  |  | < 1000 pM | 4-H3_H7_L1 (antibody, human IgG1, kappa, V domains shown, humanised, human IgG1 kappa) VH: QVQLVESGGGVVQPGRSLRLSCAASGIDLTSNAMNWVRQAPGKGLEWIGGIYGHDTSYYAAWAKGRFTISRDNSKNTVYLQMNSLRAEDTATYFCARGFIYFDIWGQGTLVTVSS VL: DYQMTQSPSSLSASVGDRVTITCLASEDIASGISWYQQKPGKAPKLLIYGASNLESGVPSRFSGSGSGTDYTLTISSLQPEDFATYYCLGGYSFSSNGLTFGGGTKVEIKT | Kd [4]: 5.84 pM; koff [4]: 3.82e-07 s⁻¹; kon [4]: 65400 M⁻¹ s⁻¹
